{
  "source": "patent US11732029B2",
  "about": "“Methods and compositions for the treatment of wounds” (The University of Chicago, priority 2017, dated 2023)",
  "experiment_in_all_cases": "vWF binding to recombinant GFs (ELISA)",
  "conditions_in_all_cases": "VEGF-A121 signal as baseline",
  "key": {"BMP-7": {"target": "T1, BMP-7 (Homo sapiens, UniProt P18075)", "T1 construct": "All GFs and chemokines were purchased in their mature forms; purchased PeproTech; host or cells: eukaryotic cells (not further specified)", "T1 sequence (P18075 293-431)": "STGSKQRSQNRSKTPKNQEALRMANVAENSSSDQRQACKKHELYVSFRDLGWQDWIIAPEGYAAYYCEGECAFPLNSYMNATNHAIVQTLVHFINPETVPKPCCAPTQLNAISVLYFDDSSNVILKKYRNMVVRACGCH", "description": "(§1) ELISA tests were performed as previously reported1. In brief, ELISA plates (med-binding, Greiner Bio-One) were coated with 50 nM GFs at 37° C. for 2 hrs. After blocking with 2% BSA solution containing PBS-T, 1 μg/mL of plasma-derived vWF (EMD Millipore) was added. Bound vWF was detected with 1 μg/mL of rabbit anti-human vWF antibody (Sino Biological). Then, HRP conjugated goat anti-rabbit antibody (Jackson ImmunoResearch) was added. After 60 min of incubation, 50 μL TMB substrate (Sigma-Aldrich) was added. The reaction was stopped by adding 25 μL of 2N H2SO4. Subsequently, the absorbance at 450 nm was measured and subtracted the absorbance at 570 nm."}, "CXCL-11": {"target": "T2, CXCL-11 (Homo sapiens, UniProt O14625)", "T2 construct": "All growth factors (GFs) and chemokines were purchased in their mature forms; purchased PeproTech; host or cells: Escherichia coli", "T2 sequence (O14625 22-94)": "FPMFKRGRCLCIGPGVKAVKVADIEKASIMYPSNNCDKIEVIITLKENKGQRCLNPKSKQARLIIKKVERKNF", "description": "as §1"}, "CXCL-12α": {"target": "T3, CXCL-12α (Homo sapiens, UniProt P48061)", "T3 construct": "All GFs and chemokines were purchased in their mature forms; purchased PeproTech; host or cells: Escherichia coli", "T3 sequence (P48061 22-89 limits assumed)": "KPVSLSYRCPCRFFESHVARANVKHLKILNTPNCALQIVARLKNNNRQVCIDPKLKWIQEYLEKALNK", "description": "as §1"}, "CXCL-12γ": {"target": "T4, CXCL-12γ (Homo sapiens, UniProt P48061)", "T4 construct": "All GFs and chemokines were purchased in their mature forms; purchased R & D Systems; host or cells: Escherichia coli", "T4 sequence (P48061 22-119 isoform P48061-3)": "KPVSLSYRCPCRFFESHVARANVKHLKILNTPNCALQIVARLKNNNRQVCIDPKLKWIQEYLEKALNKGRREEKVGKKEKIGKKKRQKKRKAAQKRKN", "description": "as §1"}, "EGF": {"target": "T5, EGF (Homo sapiens, UniProt P01133)", "T5 construct": "All GFs and chemokines were purchased in their mature forms; purchased PeproTech; host or cells: Escherichia coli", "T5 sequence (P01133 971-1023 limits assumed)": "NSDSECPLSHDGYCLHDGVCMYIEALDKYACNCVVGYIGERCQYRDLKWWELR", "description": "as §1"}, "FGF-1": {"target": "T6, FGF-1 (Homo sapiens, UniProt P05230)", "T6 construct": "All GFs and chemokines were purchased in their mature forms; purchased PeproTech; host or cells: Escherichia coli", "T6 sequence (P05230 16-155 limits assumed)": "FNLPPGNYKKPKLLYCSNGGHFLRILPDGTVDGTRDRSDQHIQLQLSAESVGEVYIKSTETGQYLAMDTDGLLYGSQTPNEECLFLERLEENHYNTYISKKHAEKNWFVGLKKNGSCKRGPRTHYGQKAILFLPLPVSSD", "description": "as §1"}, "FGF-18": {"target": "T7, FGF-18 (Homo sapiens, UniProt O76093)", "T7 construct": "All GFs and chemokines were purchased in their mature forms; purchased PeproTech; host or cells: Escherichia coli", "T7 sequence (O76093 28-207)": "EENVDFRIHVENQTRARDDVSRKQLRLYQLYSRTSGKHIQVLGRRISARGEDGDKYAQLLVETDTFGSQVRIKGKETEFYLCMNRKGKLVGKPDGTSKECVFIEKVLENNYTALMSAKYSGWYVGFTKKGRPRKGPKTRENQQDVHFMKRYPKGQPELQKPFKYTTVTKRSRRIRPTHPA", "description": "as §1"}, "FGF-7": {"target": "T8, FGF-7 (Homo sapiens, UniProt P21781)", "T8 construct": "All GFs and chemokines were purchased in their mature forms; purchased PeproTech; host or cells: Escherichia coli", "T8 sequence (P21781 32-194)": "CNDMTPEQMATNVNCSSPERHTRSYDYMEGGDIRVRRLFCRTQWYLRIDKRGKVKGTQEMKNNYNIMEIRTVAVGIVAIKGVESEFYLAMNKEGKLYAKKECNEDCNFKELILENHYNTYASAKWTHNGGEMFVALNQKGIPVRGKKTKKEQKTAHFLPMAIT", "description": "as §1"}, "IGF-I": {"target": "T9, IGF-I (Homo sapiens, UniProt P05019)", "T9 construct": "All GFs and chemokines were purchased in their mature forms; purchased PeproTech; host or cells: Escherichia coli", "description": "as §1"}, "IGF-II": {"target": "T10, IGF-II (Homo sapiens, UniProt P01344)", "T10 construct": "All GFs and chemokines were purchased in their mature forms; purchased PeproTech; host or cells: Escherichia coli", "description": "as §1"}, "NT-3": {"target": "T11, NT-3 (Homo sapiens, UniProt P20783)", "T11 construct": "All GFs and chemokines were purchased in their mature forms; purchased PeproTech; host or cells: Escherichia coli", "T11 sequence (P20783 139-257)": "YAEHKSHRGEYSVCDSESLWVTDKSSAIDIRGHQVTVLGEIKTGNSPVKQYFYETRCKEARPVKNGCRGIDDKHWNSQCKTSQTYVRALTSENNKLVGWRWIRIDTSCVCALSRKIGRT", "description": "as §1"}, "PDGF-AA": {"target": "T12, PDGF-AA (Homo sapiens, UniProt P04085)", "T12 construct": "All GFs and chemokines were purchased in their mature forms; purchased PeproTech; host or cells: Escherichia coli", "description": "as §1"}, "PDGF-BB": {"target": "T13, PDGF-BB (Homo sapiens, UniProt P01127)", "T13 construct": "All growth factors (GFs) and chemokines were purchased in their mature forms; purchased PeproTech; host or cells: Escherichia coli", "T13 sequence (P01127 82-190 limits assumed)": "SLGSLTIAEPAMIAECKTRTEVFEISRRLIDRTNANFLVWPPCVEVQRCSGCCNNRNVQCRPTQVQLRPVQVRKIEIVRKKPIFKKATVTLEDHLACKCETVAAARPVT", "description": "as §1"}, "TGF-β1": {"target": "T14, TGF-β1 (Homo sapiens, UniProt P01137)", "T14 construct": "All GFs and chemokines were purchased in their mature forms; purchased PeproTech; host or cells: eukaryotic cells (not specified)", "T14 sequence (P01137 279-390 limits assumed, species assumed)": "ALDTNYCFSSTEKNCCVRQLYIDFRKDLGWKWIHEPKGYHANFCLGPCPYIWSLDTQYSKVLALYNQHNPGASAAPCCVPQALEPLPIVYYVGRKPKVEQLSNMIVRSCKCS", "description": "as §1"}, "TGF-β3": {"target": "T15, TGF-β3 (Homo sapiens, UniProt P10600)", "T15 construct": "All GFs and chemokines were purchased in their mature forms; purchased PeproTech; host or cells: eukaryotic cells (not specified)", "T15 sequence (P10600 301-412 limits assumed)": "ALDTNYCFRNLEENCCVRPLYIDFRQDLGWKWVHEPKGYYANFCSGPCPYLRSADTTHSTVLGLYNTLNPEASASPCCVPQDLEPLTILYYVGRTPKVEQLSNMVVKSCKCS", "description": "as §1"}, "VEGF-A165": {"target": "T16, VEGF-A165 (Homo sapiens, UniProt P15692)", "T16 construct": "All growth factors (GFs) and chemokines were purchased in their mature forms; purchased PeproTech; host or cells: Escherichia coli", "T16 sequence (P15692 27-191 isoform P15692-4 limits assumed)": "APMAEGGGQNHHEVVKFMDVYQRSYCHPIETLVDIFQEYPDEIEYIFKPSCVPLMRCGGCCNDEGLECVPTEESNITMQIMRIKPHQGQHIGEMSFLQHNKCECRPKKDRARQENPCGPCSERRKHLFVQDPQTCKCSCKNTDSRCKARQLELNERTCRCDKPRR", "description": "as §1"}},
  "data": [
    {"substance": "vWF: human plasma-derived von Willebrand factor (EMD Millipore)", "values": [
      {"measurement": "vWF binding to BMP-7", "setting": "BMP-7", "result": "not"},
      {"measurement": "vWF binding to CXCL-11", "setting": "CXCL-11", "result": "bound"},
      {"measurement": "vWF binding to CXCL-12α", "setting": "CXCL-12α", "result": "did not"},
      {"measurement": "vWF binding to CXCL-12γ", "setting": "CXCL-12γ", "result": "strong binding signal"},
      {"measurement": "vWF binding to EGF", "setting": "EGF", "result": "did not show binding"},
      {"measurement": "vWF binding to FGF-1", "setting": "FGF-1", "result": "not"},
      {"measurement": "vWF binding to FGF-18", "setting": "FGF-18", "result": "bound"},
      {"measurement": "vWF binding to FGF-7", "setting": "FGF-7", "result": "bound"},
      {"measurement": "vWF binding to IGF-I", "setting": "IGF-I", "result": "Neither insulin-like growth factor-I (IGF-I) nor IGF-II bound"},
      {"measurement": "vWF binding to IGF-II", "setting": "IGF-II", "result": "Neither insulin-like growth factor-I (IGF-I) nor IGF-II bound"},
      {"measurement": "vWF binding to NT-3", "setting": "NT-3", "result": "relevant binding"},
      {"measurement": "vWF binding to PDGF-AA", "setting": "PDGF-AA", "result": "bound"},
      {"measurement": "vWF binding to PDGF-BB", "setting": "PDGF-BB", "result": "bound"},
      {"measurement": "vWF binding to TGF-β1", "setting": "TGF-β1", "result": "strong binding"},
      {"measurement": "vWF binding to TGF-β3", "setting": "TGF-β3", "result": "not"},
      {"measurement": "vWF binding to VEGF-A165", "setting": "VEGF-A165", "result": "bound"}
    ]}
  ]
}
